Read-outs that look alike come from different tables or passages of the source.
Legend:
MutS R842E = target: T1, MutS R842E (Pseudomonas aeruginosa, UniProt Q9HY08 1-855, R842E); assay: native PAGE shift
T1 sequence: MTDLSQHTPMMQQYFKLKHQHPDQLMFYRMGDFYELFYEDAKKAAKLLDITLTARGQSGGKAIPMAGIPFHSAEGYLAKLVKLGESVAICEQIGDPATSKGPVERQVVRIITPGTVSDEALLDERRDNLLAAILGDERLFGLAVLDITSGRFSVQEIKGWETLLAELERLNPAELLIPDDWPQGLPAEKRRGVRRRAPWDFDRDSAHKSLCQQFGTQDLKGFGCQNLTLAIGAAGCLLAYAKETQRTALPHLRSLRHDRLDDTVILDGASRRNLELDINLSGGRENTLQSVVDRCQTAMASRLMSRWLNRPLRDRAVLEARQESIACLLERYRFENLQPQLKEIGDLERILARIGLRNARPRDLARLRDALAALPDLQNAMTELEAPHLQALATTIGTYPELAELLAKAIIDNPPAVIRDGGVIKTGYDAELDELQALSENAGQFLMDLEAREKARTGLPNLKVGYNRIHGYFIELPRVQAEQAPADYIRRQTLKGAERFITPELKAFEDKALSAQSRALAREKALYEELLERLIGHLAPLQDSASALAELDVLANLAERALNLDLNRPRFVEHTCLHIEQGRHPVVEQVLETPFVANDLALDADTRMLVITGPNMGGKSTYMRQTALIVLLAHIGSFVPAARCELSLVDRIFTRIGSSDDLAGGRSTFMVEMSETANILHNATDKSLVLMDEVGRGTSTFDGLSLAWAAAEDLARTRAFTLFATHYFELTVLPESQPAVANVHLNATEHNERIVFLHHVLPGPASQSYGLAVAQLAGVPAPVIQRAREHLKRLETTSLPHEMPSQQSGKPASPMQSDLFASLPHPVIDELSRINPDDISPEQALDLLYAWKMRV

MutS [1] = target: T2, MutS (Pseudomonas aeruginosa, UniProt Q9HY08 1-855); assay: SPR
T2 sequence: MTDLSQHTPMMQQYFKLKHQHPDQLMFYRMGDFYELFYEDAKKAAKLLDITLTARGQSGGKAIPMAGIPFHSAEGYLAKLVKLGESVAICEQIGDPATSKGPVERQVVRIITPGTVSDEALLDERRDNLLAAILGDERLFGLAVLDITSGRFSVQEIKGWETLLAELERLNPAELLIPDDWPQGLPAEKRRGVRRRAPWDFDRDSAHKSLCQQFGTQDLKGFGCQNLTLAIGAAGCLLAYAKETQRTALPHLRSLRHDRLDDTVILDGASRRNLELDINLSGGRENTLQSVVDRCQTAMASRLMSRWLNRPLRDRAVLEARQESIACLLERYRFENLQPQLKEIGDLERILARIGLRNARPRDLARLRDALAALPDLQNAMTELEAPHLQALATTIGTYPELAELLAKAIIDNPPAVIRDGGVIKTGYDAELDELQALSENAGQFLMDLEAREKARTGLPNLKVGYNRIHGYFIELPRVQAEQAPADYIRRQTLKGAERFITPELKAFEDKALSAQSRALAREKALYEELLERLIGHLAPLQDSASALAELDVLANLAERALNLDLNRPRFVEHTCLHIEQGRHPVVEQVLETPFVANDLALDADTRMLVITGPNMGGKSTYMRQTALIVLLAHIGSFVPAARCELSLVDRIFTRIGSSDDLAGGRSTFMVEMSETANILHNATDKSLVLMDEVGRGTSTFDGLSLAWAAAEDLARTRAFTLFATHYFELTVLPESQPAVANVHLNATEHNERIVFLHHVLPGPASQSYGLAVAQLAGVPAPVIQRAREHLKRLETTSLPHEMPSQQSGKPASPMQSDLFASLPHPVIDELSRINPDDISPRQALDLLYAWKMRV

MutS [2] = target: T2, MutS; assay: SPR; remark: listed apart in the source

B1: GT-pDNA (GT 8 nt from 3'-OH) (dsDNA)
DNA 1: ATGTGAATCAGTATGGTTGCTATCTGC
DNA 2: ATTTCCTTCAGCAGATAGTAACCATACTGATTCACAT
binding result (MutS R842E): binds

B2: GT-dsDNA (GT 18 nt from 3' end) (dsDNA)
DNA 1: ATGTGAATCAGTATGGTTGCTATCTGCTGAAGGAAAT
DNA 2: ATTTCCTTCAGCAGATAGTAACCATACTGATTCACAT
Kd (MutS [1]): 118 ± 8.9 nM

B3: dsDNA (dsDNA)
DNA 1: ATGTGAATCAGTATGGTTACTATCTGCTGAAGGAAAT
DNA 2: ATTTCCTTCAGCAGATAGTAACCATACTGATTCACAT
Kd (MutS [2]): 1960 nM
